The record followed here is patent US10786576B2, “Fatty acids and their use in conjugation to biomolecules” (Novartis AG, dated 2020).

Positions of bridges follow the written chain, without caps; N, C: chain ends. Non-standard residues stand in square brackets, D forms with d. No end group written: not given here. pGlu = O=C1CC[C@@H](C(=O)O)N1; Nle = CCCC[C@H](N)C(=O)O; I‑37 = not defined here

For assay [1], the target named is RXFP1.
The target in assay [2] is RXFP1. The source holds these as a separate data set.
A further assay concerns the target APJ (human, UniProt P35414). Kind of assay: cell-based or functional assay.
The target in assay [3] is hFGF23-variant of Example 28B.

Sequence of MC3R (P41968 whole entry): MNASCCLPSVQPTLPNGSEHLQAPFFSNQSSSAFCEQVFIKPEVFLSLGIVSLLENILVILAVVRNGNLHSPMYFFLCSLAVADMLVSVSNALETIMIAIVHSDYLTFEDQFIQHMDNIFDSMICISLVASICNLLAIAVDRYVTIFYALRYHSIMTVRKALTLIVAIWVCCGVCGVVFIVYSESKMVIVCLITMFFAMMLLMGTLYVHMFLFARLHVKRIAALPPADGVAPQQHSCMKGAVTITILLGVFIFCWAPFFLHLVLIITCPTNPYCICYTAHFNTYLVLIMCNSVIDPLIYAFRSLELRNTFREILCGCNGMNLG
Sequence of oxytocin receptor (P30559 whole entry): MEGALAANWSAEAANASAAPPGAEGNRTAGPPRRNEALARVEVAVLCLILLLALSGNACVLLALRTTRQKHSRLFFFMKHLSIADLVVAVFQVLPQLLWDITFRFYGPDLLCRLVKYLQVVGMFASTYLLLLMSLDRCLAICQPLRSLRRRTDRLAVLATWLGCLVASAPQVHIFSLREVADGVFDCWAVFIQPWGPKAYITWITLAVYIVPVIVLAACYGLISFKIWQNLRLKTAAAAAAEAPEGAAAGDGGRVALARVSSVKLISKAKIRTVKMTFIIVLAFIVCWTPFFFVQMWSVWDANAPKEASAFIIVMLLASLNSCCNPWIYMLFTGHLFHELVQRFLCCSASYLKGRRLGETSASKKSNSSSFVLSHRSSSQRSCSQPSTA

Turning to Oxytocin (peptide), the Emax (the concentration where the reference agonist elicited a maximal response), calcium flux with oxytocin receptor was determined as 1.25 µM.
Turning to Serelaxin (ligand), in the assay with RXFP1 [1], the cAMP (HTRF), agonist mode, EC50 was 1.12 nM. In the assay with RXFP1 [2], this molecule yielded a cAMP (HTRF), Ec50 (nM), 0% Plasma of 8 nM; a cAMP (HTRF), Ec50 (nM), 4% Plasma of 0.3 nM; a cAMP (HTRF), Ec50 (nM), 10% Plasma of 0.4 nM; a cAMP (HTRF), Ec50 (nM), 600 uL BSA of 0.7 nM.

B1: pE-R-P-C*-L-S-C*-K-G-P-(D-Nle)-NH(Phenethyl) (disulfide C4-C7) (peptide)
peptide: ERPCLSCKGPL
modifications: pE (pyroglutamate) at the N-terminus; D-Nle at position 11; C-terminal NH(Phenethyl); disulfide C4-C7
As to B1, the “hAPJ Ca2+ Flux EC50” value with APJ was determined as 3 nM.

B2: transglutaminase enzyme (Ajinomoto) (enzyme)
chain: DSDDRVTPPAEPLDRMPDPYRPSYGRAETVVNNYIRKWQQVYSHRDGRKQQMTEEQREWLSYGCVGVTWVNSGQYPTNRLAFASFDEDRFKNELKNGRPRSGETRAEFEGRVAKESFDEEKGFQRAREVASVMNRALENAHDESAYLDNLKKELANGNDALRNEDARSPFYSALRNTPSFKERNGGNHDPSRMKAVIYSKHFWSGQDRSSSADKRKYGDPDAFRPAPGTGLVDMSRDRNIPRSPTSPGEGFVNFDYGWFGAQTEADADKTVWTHGNHYHAPNGSLGAMHVYESKFRNWSEGYSDFDRGAYVITFIPKSWNTAPDKVKQGWP
Molecule B2 gave a TGase labelling of hFGF23-variant with intermediate 25d, LCMS in assay [3] of 90%.

B3: AgRP(83-132) (ligand)
chain: SSRRCVRLHESCLGQQVPCCDPCATCYCRFFNAFCYCRKLGTAMNPCSRT
modifications: disulfide 12-26, 19-37, 5-20, 23-47, 28-35
B3 returned an MC3R EC50 [nM] (cAMP assay, antagonist protocol) in the assay with MC3R of 12 nM.

B4: Example 27B: Di-fatty acid conjugate of AgRP(83-132) (AgRP+2 FA) (ligand)
chain: {I‑37}-SSRRCVRLHESCLGQQVPCCDPCATCYCRFFNAFCYCRK(I‑37)LGTAMNPCSRT
modifications: disulfide 12-26, 19-37, 5-20, 23-47, 28-35; not fully specified; printed as Ser-Ser-Arg-Arg-Cys-Val-Arg-Leu-H is-Glu-Ser-Cys-Leu-Gly-Gln-Gln-Val-Pro-Cys-Cys-Asp-Pro-Cys-Ala-Thr-Cys-Tyr-Cys-Arg-Phe-Phe-Asn-Ala-Phe-Cys-Tyr-Cys-Arg-Lys-Leu-Gly-Thr-Ala-Met-Asn-Pro-Cys-Ser-Arg-Thr; reading uncertain
Molecule B4 displayed an MC4R EC50 [nM] (HTRF cAMP assay) with MC4R of 167 nM. In the assay with MC3R, this molecule showed an MC3R EC50 [nM] (cAMP assay, antagonist protocol) of 65 nM.

B5: pE-R-P-R-L-C*-H-K-G-P-Nle-C*-F-OH (Disulfide C6-C12) (peptide)
peptide: [pGlu]RPRLCHKGP[Nle]CF-OH
modifications: disulfide 6-12
SMILES: CCCC[C@@H]1NC(=O)[C@@H]2CCCN2C(=O)CNC(=O)[C@H](CCCCN)NC(=O)[C@H](Cc2c[nH]cn2)NC(=O)[C@@H](NC(=O)[C@H](CC(C)C)NC(=O)[C@H](CCCNC(=N)N)NC(=O)[C@@H]2CCCN2C(=O)[C@H](CCCNC(=N)N)NC(=O)[C@@H]2CCC(=O)N2)CSSC[C@@H](C(=O)N[C@@H](Cc2ccccc2)C(=O)O)NC1=O
In the case of B5, in the assay with APJ, the “hAPJ Ca2+ Flux EC50” value was found to be 1.04 nM.

B6: Example 27A: Mono fatty acid conjugate of AgRP (AgRP+1FA) (ligand)
chain: {I‑37}-SSRRCVRLHESCLGQQVPCCDPCATCYCRFFNAFCYCRKLGTAMNPCSRT
modifications: disulfide 12-26, 19-37, 5-20, 23-47, 28-35; reading uncertain
With B6, the MC4R EC50 [nM] (HTRF cAMP assay) with MC4R was determined as 18 nM. This molecule also registered an MC3R EC50 [nM] (cAMP assay, antagonist protocol) in the assay with MC3R of 7 nM.
